# Experiment: soluble on expression in E. coli; label from the status in PepcDB or PDB records
row,Sequence,soluble on expression in E. coli
1,MGSDKIHHHHHHMFPAGEMFFIESIRNVRNQIKDEKLLEDIKAFIAQEAFHSREHKMLNNHLIHSNYPEVVEIEAQTKARLDKLRQLSAVEQVAATVVMEHYTATLARLLLTDSLIKAKTTQESRNLWEWHALEELEHKSVAFDVLNAIGGNSSKNRKVALARVAKLITPIIFKYWIKILKRKDINFTLKQLKDGIYLGFGGINRVGILSKAFVDMLDVRAENFDPLNMQTEQLEAEFREKLFGQAGFLRDYLS,not soluble
2,ASIPSSASVQLDSYNYDGSTFSGKIYVKNIAYSKKVTVVYADGSDNWNNNGNIIAASFSGPISGSNYEYWTFSASVKGIKEFYIKYEVSGKTYYDNNNSANYQVST,soluble
3,MAHHHHHHMCEKDDITVNEEILQKAQEFQVENEKDIKMKKLKPITEGLLKPEVDLLQISERGSRGRVKICNVLNVPRSEKEYNNNNSDKVENKYIGKIITVCGWSKAIRKQGGGRFCFVNLNDGSCHLNLQIVVNQCIENYEKLLKCGAGCCFRFTGELIISPVQNDNNKKGLLKENVELALNNNDIHNFEIYGENLDPQKYPLSKKNHGKEFLREVAHLRPRSYFISSVIRIRNSLSIATHLFFQSRGFLYIHTPLITTSDCEGGGEMFTVTTLLNENGDIRSIPRINLKNKKKEKREDILNEKNGKKDHMNDSLNNNTCNNNNNNGNSSSSNIVSSPQYEDNYLIDYKKDFFSKQAFLTVSGQLSLENLCSSMGDVYTFGPTFRAENSHTSRHLAEFWMIEPEIAFADLYDNMELAEAYIKYCIDYVLNNNFHDIYYFEENVETNLIKRLKNILNEDFAKITYTNAIEILQNYSDSFEVKVEWGMDLQSEHERFIAEKIFKKPVIVYNYPKDLKAFYMKLNEDNKTVAAMDVLVPKIGEVIGGSQREDNLERLDKMIKEKKLNIDSYWWYRQLRQYGSHPHAGFGLGFERLIMLVTGVDNIKDTIPFPRYPGHAEF,soluble
4,MLQPPHQSLQVAAVPAQRAPVRDRDQDAPWHTEAVCRRDEAGLFFAPSKEPTAARLSREEAAKRVCARCPVMVECREHALLQPEPYGVWGGLTAAERRVVLARRRRRDVELKKAARGTIAAAG,not soluble
5,MLKRKVITEFRRHNRSSRWNADAHLRAHERSANVEDDAIMRVDTCQLAANNPIEDFYSAAKCLSSRAFLFGVFDGHGGQQCSRHISTNLYPYLCASVLKKHEVVDYPSDQRLEWLFSSSDGHLPNAFKGRETQHIAEYHKQFKKNANAYTGTVREALKLAFETCDKDLAENALPSAKGVIDRHAAMVAASGSCCTLAHIRSRHLHVANLGDAAAVLGVVNPNGSVTARQLSRAHCVDNADEVHRIRIAHPASESQTVLRGGRLLGELFPLRAFGDVRYKWPLDLQKVVLEPLGHPPPQHLFTPPYLSTSPEVFYHKLTPNDRFLVLATDGLWEWLDPDTVVRLVHDHTLGTITQQPYVPKSGTSLRQVREQLKDRARGEQKTKKPIDENCATHIIRHALGGVSGGATKQYERLIDILQVPPGRARNYRDDITVIVIHFNETFLDGHEDDEE,not soluble
6,MPDFKIVISDPQSVEPKRIKVKVKASDQVKSITGEKDGKAVPQAKVNEKTKQLLNVDTLLTLEITKQEGDKKVKVKGHFKVDVDNSVPDNEVWISKTMAEKFGAEDFEAFAYRTKTLQISVDQNKATNLVGLKIGDVFEANQLIGLPVKLKITGGSDNSGFPMRFDVIGAAKRKILLSGPPGFYPNENGERRRKTIRGNTISQEIVQINTIIVRLEHHHHHH,soluble
7,MGSDKIHHHHHHMFERSDETLIAQALKGKKSAWLTLVKRYEKNLYNYALRMVNNPADAMDLMQDIFIALFRNLSKFRGECPFKNWLFKIAHYRCLEYYRRKRPMQSLDDVPEQEDEESVCLEKNLQIQQQSSALLEAMQHLPVKQKLVVELKFFQQCTFEDISQQLGISTNTAKSQLYSALDKLKLHLVDDQIIKVGVEYV,not soluble
8,MAKSLRASSHLNAKSVKRRGVFQKAVDAREQRISDKLKEDLLKQKLEDLKKKEEQGIDMDVDEKKSNEEAPRKKISTSGWRDGRHHTYKKAKLMKQSKKKTSFTRF,soluble
9,ITLNSEPKCINNIKSGQYERYDTNNTELNRVLGGGLVKGSITLISGAPGIGKSTLLLQICQDIALKYGKVLYVSGEESEHQIKMRGDRLGVTSANIYILAETNMESIERHVENIKPAFVIIDSIQTLYKDQITSAPGSVSQVRECANDIMRIAKTDNIPFFIVAHVTKQGELAGPRVLEHIVDTVLTFEGQRTEEFRILRTVKNRFGTTSEIGVFEMKEEGL,not soluble
10,MGKKNEKIVEEAEKVEAETMEVDEQPQETPQVDDEEDLNVPSKKKMEILDPKSFEQDPSNLTLIMYEEDHTIGNSIKHILSRMDEVEFCGYNVPHPLEDKILFRVQTKDGINALEVLAKAFESVEQIFSTIRGKFEESYEQSQS,soluble
11,MSLRVRQIDRREWLLAQTATECQRHGREATLEYPTRQGMWVRLSDAEKRWSAWIKPGDWLEHVSPALAGAAVSAGAEHLVVPWLAATERPFELPVPHLSCRRLCVENPVPGSALPEGKLLHIMSDRGGLWFEHLPELPAVGGGRPKMLRWPLRFVIGSSDTQRSLLGRIGIGDVLLIRTSRAEVYCYAKKLGHFNRVEGGIIVETLDIQHIEEENNTTETAETLPGLNQLPVKLEFVLYRKNVTLAELEAMGQQQLLSLPTNAELNVEIMANGVLLGNGELVQMNDTLGVEIHEWLSESGNGE,not soluble
12,MGQLPPRARAFFAAQRPLRVLMPGCGSAADLPPLLAMGHDVLAVDFSEAAIELAARQWPEAAGRLLLADFFQLQMPAFDCLFERAFLCALPVGMRSQYAERVAALIAPGGALAGVFFVADTERGPPFGMQAEALRELLSPWFELEEDLALDESVAVFRNRERWMVWRRRGLEHHHHHH,not soluble
13,MDWMPLGDYETFRHWSGKPRAWGPQESGWRAWFGGKIVDGLCEVLDEHLAVRRRGVPAAIGCVPWLSSEAVAETLLALSVFCVVIDKGTSFPSRLRNPDKGFPNVALLRLRDMAPSEHGSRCSSARGRLCLSMS,not soluble
14,MGSDKIHHHHHHMNTNDTELLRLFETLTTEQKIDIARHLLQNKDIKSTTVIATEEDKAISFAQPYVFAFTSNFRVFSDLDISKNEFRVLTYILEYMEFGNLINLSQSSLCKALNIASGNMSNIFKKLKQKGILVEHHGHLYINSNIFAKGLSHQLDEKRKEHLSNARSLHAELEQYPENYTDYSKQERRNLALETETKEIYTDAFIFSKKKKNNAVPNAKNSIKIDKPRKVYKRTKENEAARKDLADAKNHLKAVS,not soluble
15,GNNFNWTSVLNMTHNKNKIVSLDGKLDQSIEGSWFIHKVGLPYSTFYVKEYAGVDPQTGKALYYMNTQDANGNYDRTVTTDASAAQAIPYKSVDPKISGGFTNIVNYKWFDLALTLTYSLGGYSFDKTGTYNETDGAKEQNYNLPIYELDRWQKPGDVTDVPRFVLGQAAGPQNSSRYVHSTDHLRVKNLTLGFTLPDQWLTKLGVSKARLYFSGSNLLTWAKWDQYDPEVPVSGEVFCETPPMRTYSFGIEVSF,not soluble
16,MGSDKIHHHHHHMIDHLIATDIGGRGSEKLYILYKSKDPDYFSKSLDLLIKSDEVLIVSDFPIPPTMTPETDGPPGALALALGLAELGKKATILTQEIVKEGLRDFYPRITTKFPNIRKFSCLVSIETPGRNFKGEYLSFSGLKISVRPYDDLFLRALELGIPTIGIGDGGNEIGMGNLGLNDERFSVVRVNELIIAGVSNWGAYGLVAGLSMRVGQNLLRDYNEEDVVKSLVDVGLIDGITKKREPTVDGLPLSLHGKILELLIEIVNIKTP,not soluble
17,MIQTKQIGLQEVLSAAIKRATDEKILVSFVKQIDWMDPLLFYAAGKRISFENRCYFADPAQHVIFAGIGSVFTIATASRKRFQTARDEWDKVKEKAFVQREKYEFGTGPLLFGGFSFDQEKEKTDLWKEFDDTTFSLPTFLLTVKNEKAWLTMNTFVSATDCAETLYNEIVSLEEKIFEESKCALEGSKLTVTSKVEVDPKGWMKAIEKVQDEMKQGNVQKVVLARELKVEMDHHIDSALVLEALRIGQPDCYVFSFDYKGACFLGATPERLIRKEDEKFTSMCLAGSTSHGQSIEESKRNSNALLHDEKNLAEHGYVVNMIRSVLNEHCEFVNIPESPGLLTTKNLIHLYTPVEAKGDASLLTMVEELHPTPALGGTPRLEAMKLIRDVELLDRGLYGAPIGWIDDEGNGEFAVALRCGLLNGEKASLFAGCGIVIDSVPQLEYEETSLKFRPMLGALEELMK,not soluble
18,MLIQKAYKYRLYPTDQQAQRLRQLCGCARFVWNYALNETLSIHDAGGKIPSAFDLNKRLTGWKKLPELAFLSEGYTDNLQQKLKDLRSAWDRCFDKSLTAEKPVFKKKTKGCDSIRFVNFSKYCGLDYGRVKLPSGLGWVKFRQSRKIEGVIKNCTISQHAGHWYVSFQVELAVTDPIHASTSAIGLDAGITKLATLSDGTVFEPVNSLKKNQDKLARLQRRLARMVKFSANWKKQKAKISRFHSHIANIRRDYLHKTTTTISKNHAMIVIEDLKVSNMSKSAAGTVDQPGRNVAAKSGLNRAILDQGWAEMRRQLEYKQAWRGGDVLAINPAYTSQKCACCGHTSKNNRRTQASFICTACGYTANADVNGARNILTAGFEVMAAGQILPSVRKGRARKAA,not soluble
19,MLSVDYENFDLISYLYNLVRQIPDGMVSTYGDLAEALGDPVAARSVGFMLSINKEPDYIPCYKVVPHDGSVGNYTHPLGSAEKMRRLIRDGITITNGHISNFEKVRFREFKTDYPLRKLRELQFKIGRLYDDRNDYSLDTIAAFDVSYKETRGYASKVVYNKGKIGAYVYSSDSMFPYIPGYLAFKEFKFIRALYDNETMILIDGNGILHPRFAGLATHAGVSLKTASIGIAKHLINCTVKGSDLLISGVVAGKMIGHHTIVSPGNRINVEEAGRLIEQREGKEMRSLLRLAHNLTRLHIETNGNIARYDFSTRNTAIQSSLEHHHHHH,not soluble
20,MGSDKIHHHHHHMSELTDLLLQGPRSAPELRQRLAISQATFSRLVAREDRVIRFGKARATRYALLRPYRGIERIPVWRVDDTGKAHKFADIRLCWPQGSCLVTGADGDEQWFDGLPWYLTDLRPQGFLGRAWGRKLAAQLNLTDDIRLWQEEDVLYALTVFNGEYTGGWLVGEGNYQRWITAQHPAEIPLDQKLTHYEQLASDALAGEIVGSSAGGEQPKFTYYAQTPSGNKHVLVKFTVPQQTAVSQRWGDLLIAESIAAQILRDGGIHAIESTVLVTSNRQVFLEAERFDCKGNDGRLPIVSLEAVQSEFISSPGSWPQAMRRLCEQQLVTHQSVAQTEVIWAFGRLIANSDMHAGNLSFYLSEPPFALTPVYDMLPMVYAPNSAGMLRDAAIEVKFDLNVSKSAWLTAIPLAQQFWQTVARDPRISEAFRHIAQEMPEKIRQIEEKVARMGG,not soluble
21,IVGLRVGAAAEFALSNDGFYLAPGLAYTMRGAKMESLSETTTRLHYLQIPVNAGMRFSFADNMAISLEAGPYFAYGVAGTIKTKVAGVTASVDAFGDNGYNRFDLGLGLSAALSYDRYYVQIGYEHGLLNMLKDAPDKTSLRNHDFFVGLGVRF,not soluble
22,MSLNQSYFNLLGNITWLWMNSSLHKEWSCELLARNVIPAIENEQYMLLIDNGIPIAYCSWADLNLETEVKYIKDINSLTPEEWQSGDRRWIIDWVAPFGHSQLLYKKMCQKYPDMIVRSIRFYPKQKELGKIAYFKGGKLDKKTAKKRFDTYQEELATALKNEFNFIKKEGHHHHHH,soluble
23,MVNYENVIVTEITETLTFFAQSVESGSKLESLMSKLHADFQSNPPIAGSYTPKRGDLVAAQFTLDNQWYRAKVERVQGSNATVLYIDYGNKETLPTNRLAALPPAFSSEKPYATEYALALVALPTDNEDKEEALRAFSEDVLNHKVQLNVELKVTGSPNLATLRDPTTKVDFGKQLVAEGLVLAEQRGERKLKELVDQYKAAQEAARVAHLAIWKYGD,soluble

# Source: the DeepSol protein solubility set
